T1: FI6-focused_03 (synthetic design on Bacteroides …)
T1 construct: also called FI6-focused design_03; design_03 scaffold; source: E. coli BL21 (DE3), purified (Ni-NTA, SEC)
T1 chain: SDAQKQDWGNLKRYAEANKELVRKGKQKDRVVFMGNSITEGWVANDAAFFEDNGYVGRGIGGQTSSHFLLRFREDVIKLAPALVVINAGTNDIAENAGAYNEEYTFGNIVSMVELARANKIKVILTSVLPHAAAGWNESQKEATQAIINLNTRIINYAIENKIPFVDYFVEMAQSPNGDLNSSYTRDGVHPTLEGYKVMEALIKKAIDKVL

T2: stem-mimetic_01 (synthetic design on Mus musculus ApoE …, chimera)
T2 construct: source: E. coli BL21 (DE3), purified (Ni-NTA, SEC)
T2 chain: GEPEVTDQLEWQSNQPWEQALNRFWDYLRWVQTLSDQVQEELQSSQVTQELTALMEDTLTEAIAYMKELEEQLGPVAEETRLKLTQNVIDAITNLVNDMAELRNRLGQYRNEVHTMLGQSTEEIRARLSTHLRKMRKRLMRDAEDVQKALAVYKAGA

T3: FI6-focused_04 (synthetic design on Bacteroides …)
T3 construct: also called FI6-focused design_04; FI6-focused design; source: E. coli BL21 (DE3), purified (Ni-NTA, SEC)
T3 chain: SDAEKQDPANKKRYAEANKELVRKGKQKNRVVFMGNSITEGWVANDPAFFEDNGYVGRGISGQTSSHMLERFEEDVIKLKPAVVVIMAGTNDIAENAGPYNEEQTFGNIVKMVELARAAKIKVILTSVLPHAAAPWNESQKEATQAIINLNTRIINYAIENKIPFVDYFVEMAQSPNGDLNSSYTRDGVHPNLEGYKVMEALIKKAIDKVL

B1: FI6 antibody (IgG) (antibody, V domains shown)
VH: QVQLVESGGGVVQPGRSLRLSCAASGFTFSTYAMHWVRQAPGKGLEWVAVISYDANYKYYADSVKGRFTISRDNSKNTLYLQMNSLRAEDTAVYYCAKDSQLRSLLYFEWLSQGYFDYWGQGTLVTVSS
VL: DIVMTQSPDSLAVSLGERATINCKSSQSVTFNYKNYLAWYQQKPGQPPKLLIYWASTRESGVPDRFSGSGSGTDFTLTISSLQAEDVAVYYCQQHYRTPPTFGQGTVEIK
notes: also called FI6 Ab; source: Expi293, purified (protein A, SEC)
B2: FI6 Fab (Fab, V domains shown)
VH: B1 VH
VL: B1 VL

Legend:
Conditions in all cases: both partners purified
FI6-focused_03 = target: T1, FI6-focused_03; test: SPR
stem-mimetic_01 = target: T2, stem-mimetic_01; test: SPR; Biacore 8K, HBS-EP+; ligand on a CM5 chip by amine coupling, named FI6 Fab in the legend of Figure 2A and 2D (the methods say IgG); monomeric design as analyte (62.5 nM to 7.8 nM for FI6-focused_04; 5 μM to 312.5 nM for stem-mimetic_01); 1:1 Langmuir fit
FI6-focused_04 = target: T3, FI6-focused_04; test: as above

Binder | Kd (FI6-focused_03) | Kd (stem-mimetic_01) | Kd (FI6-focused_04)
B1 | 0.26 nM |  | 
B2 |  | 44 nM | 6 nM

— article doi:10.1101/2025.01.22.634229, “Computationally designed stem-epitope mimetics elicit broadly reactive antibodies” (bioRxiv, 2025)
